The target in experiment [1] is T1, recombinant human TREM2-DAP12 fusion protein expressed on cells (human).
T1 construct: also called HEKhT2; 293 cells expressing human TREM2; not shown: None of these limits is stated
T1 chain: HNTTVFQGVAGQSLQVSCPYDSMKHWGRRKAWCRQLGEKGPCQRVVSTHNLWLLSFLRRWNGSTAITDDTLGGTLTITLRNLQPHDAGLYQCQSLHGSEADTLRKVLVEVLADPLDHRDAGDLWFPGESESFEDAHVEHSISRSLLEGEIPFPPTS
Nature of the experiment: KD cell binding.

In experiment [2] the target is T2, D152A.
T2 construct: also called hTREM2-Dap12 chimera with D152A; not shown: Transmembrane/cytoplasmic stretch and the Dap12 portion of the chimera
T2 chain: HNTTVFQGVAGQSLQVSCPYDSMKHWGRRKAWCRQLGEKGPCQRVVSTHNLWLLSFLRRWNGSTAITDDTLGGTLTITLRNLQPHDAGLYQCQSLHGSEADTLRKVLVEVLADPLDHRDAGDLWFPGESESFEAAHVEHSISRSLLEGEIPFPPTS
Description: shotgun alanine scanning: immunofluorescence flow cytometry on HEK-293T cells expressing the mutant chimera. Background: A flow cytometer gives signals particle by particle.

Experiment [3] concerns the target T3, H154A.
T3 construct: also called hTREM2-Dap12 chimera with H154A; not shown: Transmembrane/cytoplasmic stretch and the Dap12 portion of the chimera
T3 chain: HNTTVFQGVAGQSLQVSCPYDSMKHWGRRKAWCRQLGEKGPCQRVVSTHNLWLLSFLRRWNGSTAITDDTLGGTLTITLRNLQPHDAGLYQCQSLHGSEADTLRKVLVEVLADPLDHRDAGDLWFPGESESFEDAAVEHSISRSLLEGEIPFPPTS
The description is as above.

Experiment [4] concerns the target T4, E151A.
T4 construct: also called hTREM2-Dap12 chimera with E151A; not shown: Transmembrane/cytoplasmic stretch and the Dap12 portion of the chimera
T4 chain: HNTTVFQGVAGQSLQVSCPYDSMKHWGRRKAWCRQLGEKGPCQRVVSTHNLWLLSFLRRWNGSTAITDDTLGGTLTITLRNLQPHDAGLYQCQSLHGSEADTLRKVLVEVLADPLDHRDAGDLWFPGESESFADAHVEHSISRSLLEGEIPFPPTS
The description is as above.

The target in experiment [5] is T5, human TREM2 on primary cells (human, UniProt Q9NZC2 19-230).
T5 construct: also called TREM2 on hDC; hMAC
T5 sequence: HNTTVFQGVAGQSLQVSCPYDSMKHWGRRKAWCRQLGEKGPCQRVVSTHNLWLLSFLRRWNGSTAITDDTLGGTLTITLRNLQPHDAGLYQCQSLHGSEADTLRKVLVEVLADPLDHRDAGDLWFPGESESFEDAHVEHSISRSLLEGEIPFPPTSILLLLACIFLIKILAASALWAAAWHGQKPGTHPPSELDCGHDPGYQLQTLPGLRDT
Nature of the experiment: FACS, primary hMAC.

The target of a further experiment is T6, mouse TREM2 on cells (mouse, UniProt Q99NH8 19-227).
T6 construct: recombinant on BWZ cells (with DAP12) and native on mouse macrophages; also called BWZmT2; BWZ T2
T6 sequence: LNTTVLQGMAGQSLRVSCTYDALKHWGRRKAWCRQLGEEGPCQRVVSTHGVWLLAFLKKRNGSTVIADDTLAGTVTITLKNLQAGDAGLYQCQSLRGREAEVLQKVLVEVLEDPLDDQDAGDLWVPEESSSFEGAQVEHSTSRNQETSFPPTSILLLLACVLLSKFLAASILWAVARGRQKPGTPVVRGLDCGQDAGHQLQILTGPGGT
Description: FACS on thioglycollate-induced macrophages of wild-type mice (mouse TREM2 only), gated CD11b+ F4/80+.

For the next experiment, the target named is T7, K42A.
T7 construct: also called hTREM2-Dap12 chimera with K42A; not shown: Transmembrane/cytoplasmic stretch and the Dap12 portion of the chimera
T7 chain: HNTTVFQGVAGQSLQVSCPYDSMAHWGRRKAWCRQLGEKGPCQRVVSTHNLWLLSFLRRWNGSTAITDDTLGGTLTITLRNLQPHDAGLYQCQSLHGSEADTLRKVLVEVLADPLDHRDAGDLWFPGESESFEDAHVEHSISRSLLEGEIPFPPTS
Nature of the experiment: shotgun alanine scanning: immunofluorescence flow cytometry on HEK-293T cells expressing the mutant chimera; mean of duplicates, range in brackets.

Another experiment concerns the target T8, H114A.
T8 construct: also called hTREM2-Dap12 chimera with H114A; not shown: Transmembrane/cytoplasmic stretch and the Dap12 portion of the chimera
T8 chain: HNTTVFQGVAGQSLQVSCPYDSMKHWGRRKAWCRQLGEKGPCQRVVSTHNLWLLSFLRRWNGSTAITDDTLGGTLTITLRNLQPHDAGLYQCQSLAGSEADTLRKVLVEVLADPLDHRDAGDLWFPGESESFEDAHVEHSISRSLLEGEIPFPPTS
The experiment is described as above.

For a further experiment, the target named is T9, G45A.
T9 construct: also called hTREM2-Dap12 chimera with G45A; not shown: Transmembrane/cytoplasmic stretch and the Dap12 portion of the chimera
T9 chain: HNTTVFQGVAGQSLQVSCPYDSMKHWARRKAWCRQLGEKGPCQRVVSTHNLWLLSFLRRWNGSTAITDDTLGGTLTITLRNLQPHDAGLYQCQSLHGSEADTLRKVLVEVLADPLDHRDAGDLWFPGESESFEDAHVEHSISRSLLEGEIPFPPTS
The experiment is described as above.

For experiment [6], the target named is T2, D152A. Described as above.
Another experiment addresses T10, E156A.
T10 construct: also called hTREM2-Dap12 chimera with E156A; not shown: Transmembrane/cytoplasmic stretch and the Dap12 portion of the chimera
T10 chain: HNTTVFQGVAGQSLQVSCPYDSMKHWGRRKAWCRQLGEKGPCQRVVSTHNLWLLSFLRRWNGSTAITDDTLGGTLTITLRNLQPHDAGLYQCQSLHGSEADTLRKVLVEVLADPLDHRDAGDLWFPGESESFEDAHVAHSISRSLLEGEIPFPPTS
The description is as above.

The target in experiment [7] is T3, H154A. Described as above.
The target of a further experiment is T11, R77A.
T11 construct: also called hTREM2-Dap12 chimera with R77A; not shown: Transmembrane/cytoplasmic stretch and the Dap12 portion of the chimera
T11 chain: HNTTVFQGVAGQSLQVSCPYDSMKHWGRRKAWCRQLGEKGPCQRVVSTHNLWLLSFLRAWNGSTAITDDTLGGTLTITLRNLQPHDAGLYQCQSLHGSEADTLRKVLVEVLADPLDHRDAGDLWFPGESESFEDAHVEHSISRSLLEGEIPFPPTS
The description is as above.

In experiment [8] the target is T4, E151A. Described as above.
Experiment [9] addresses T5, human TREM2 on primary cells. Description: FACS, primary hDC.
The target of experiment [10] is T1, recombinant human TREM2-DAP12 fusion …. Nature of the experiment: FACS, HEKhT2 cells.

B1: 9F5 (antibody, IgG1, V domains shown)
VH: QVQLQQSGPELVKPGASLKISCKASGYAFSSSWMNWVKQRPGKGLEWIGRIYPGDGDTNYNGEFRVRATLTADTSSTTAYMQLSSLTSEDSAVYFCARLLRNQPGESYAMDYWGQGASVTVSS
VL: DVVMTQTPLSLPVSLGDQASISCRSSQSLVHSNGYTYLHWYLQKPGQSPKLLIYKVSNRFSGVPDRFSGSGSGTDFTLKISRVEADDLGVYFCSQSTRVPYTFGGGTKLEIK
notes: mIgG1; VH FR 169/184/202/216, HVR 60/78/97; also called mAb T2-9F5.1; 9F5 MAb
By Kd is commonly meant the free concentration of one partner at which half of the binding sites on the other are occupied at equilibrium, for simple one-to-one binding. On to B1, for which, in experiment [1], the Kd came to 0.96 nM. Further, the binding result with D152A [2], with H154A [3], with E151A [4] and in the experiment with mouse TREM2 on cells was “no binding” in each case. Also, in [5], the “% Positive hMAC” value stood at 26%. Moreover, the “Binding Reactivity (% WT)” value with K42A came to 131 % WT; in the experiment with H114A, 114 % WT; in the experiment with G45A, 145 % WT; with D152A [6], 2.7 % WT; with E156A it was 17.7 % WT; in the experiment with H154A [7] it was 3 % WT. Besides, the results for the “Binding Reactivity (% WT)” value in the experiment with R77A and with E151A [8] were 124 % WT and 4.8 % WT, respectively. Moreover, in [9], the “% Positive hDC” value came to 73%. Besides, the “MFI HEKhT2” value in [10] was 2910 MFI.

(Values after patent publication US20230295297A1 (Alector, published 2023).)
